Tests used:
[1] = molecular target: T1, recombinant human TNFα (human, UniProt P01375 77-233); assay: cell-based or functional assay
[2] = molecular target: T1, recombinant human TNFα; assay: competition radioligand assay: mAb in hybridoma supernatant preincubated with 5 ng/ml 125I-TNFα, then binding of TNFα to plate-coated p55-sf2 counted as cpm bound
Protocol: Varying amounts of hybridoma cell supernatants containing known amounts of TNV mAb were preincubated with a fixed concentration (5 ng/ml) of ¹²⁵I-labeled TNFα. […] The amount of TNFα that bound to the p55 receptor in the presence of the mAbs was determined after washing away the unbound material and counting using a gamma counter. Although eight TNV mAb samples were tested in these experiments, for simplicity three of the mAbs that were shown by DNA sequence analyses to be identical to one of the other TNV mAbs (see Section 5.2.2) are not shown here. Each sample was tested in duplicate. The results shown are representative of two independent experiments.
(§1) 50:l of p55-sf2 at 0.5:g/ml in PBS was added to Optiplates to coat the wells during a one-hour incubation at 37° C. Serial dilutions of the eight TNV cell supernatants were prepared in 96-well round-bottom plates using PBS/0.1% BSA as diluent. […] The mixture was preincubated for one hour at RT. The coated Optiplates were washed to remove unbound p55-sf2 and 50:l of the ¹²⁵I-TNFα/cell supernatant mixture was transferred to the Optiplates. After 2 hrs at RT, Optiplates were washed three times with PBS-Tween. 100:l of Microscint-20 was added and the cpm bound determined using the TopCount gamma counter.

[3] = molecular target: T1, recombinant human TNFα; assay: 125I-TNFα binding to plate-coated p55-sf2 in presence of varying amounts of mAb in hybridoma supernatant
Protocol: as §1
A simple binding assay was done to determine whether the eight TNV mAbs contained in hybridoma cell supernatant were capable of blocking TNFα binding to receptor. The concentrations of the TNV mAbs in their respective cell supernatants were first determined by standard ELISA analysis for human IgG.

Binder	neutralizing TNFα bioactivity (potency relative to TNV14) [1]	IC50 (read off the curve) [2]	fold better at blocking TNF binding to p55-sf2 (against TNV118 and TNV14) [3]
TNV148 (antibody, human IgG1, V domains shown, also called GenTNV148.26.12; C420A) VH: QVQLVESGGGVVQPGRSLRLSCAASGFIFSSYAMHWVRQAPGNGLEWVAFMSYDGSNKKYADSVKGRFTISRDNPKNTLYLQMNSLRAEDTAVYYCARDRGIAAGGNYYYYGMDVWGQGTTVTVSS VL: EIVLTQSPATLSLSPGERATLSCRASQSVYSYLAWYQQKPGQAPRLLIYDASNRATGIPARFSGSGSGTDFTLTISSLEPEDFAVYYCQQRSNWPPFTFGPGTKVDIKR	4 fold	~4 ng/mL	~4 fold
TNV86 (antibody, human IgG1, V domains shown, also called GenTNV86.14.34; C417A) VH: QVQLVESGGGVVQPGRSLRLSCAASGFIFSSYAMHWVRQAPGNGLEWVAFMSYDGSNKKYADSVKGRFTISRDNPKNTLYLQMNSLRAEDTAVYYCARDRGIAAGGNYYYYGMDVWGQGTTVTVSS VL: EIVLTQSPATLSLSPGERATLSCRASQSVYSYLAWYQQKPGQAPRLLIYDASNRATGIPARFSGSGSGTDFTLTISSLEPEDFAVYYCQQRSNWPPFTFGPGTKVDIKR			~4 fold
